Assay results from the supplement of paper PMC12042874.
± gives the uncertainty stated by the source.

Assay: amyloid nucleation score (Sup35N fusion, yeast selection) (log enrichment); library NNK3; higher = more nucleation; inactive = no reads after selection
How it was run: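 Peptides of 20 random codons, each fused to Sup35N, were expressed in psi-negative yeast. Cells were induced with 100 μM copper sulfate for 24 hours and grown 7 days at 30°C on medium lacking adenine and uracil, and plasmid inserts before and after selection were Illumina-sequenced. Nucleation scores are DiMSum log enrichments of output over input reads, centred on the mode score of non-aggregating sequences, and sequences under 100 input reads were excluded.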

Substance	amyloid nucleation score
SFNVTVRGLSSSN	0.027 ± 0.47
MLSVPDVVRFWMFKFYKFSW	inactive
FFARSHAVIINFFCTH	2.72 ± 0.066
NALFHRI	inactive
VGWTVGYKW	inactive
SDCGDFRLMVFQKSRRDSWN	inactive
NYNCVVDNLSGKCMNEILGY	1.09 ± 0.097
LHPLYRFSANSSKDLFTSRT	inactive
NAMGTFSMGDI	inactive
YLWLWASWSWRGNQNKTSWA	inactive
SFVKWVKNQHF	inactive
YSYANSMNMGMMFMGRLGW	inactive
IRGSSKTDSKRTWVK	-0.364 ± 0.7
EIIFSSLSIPLYMLEGI	inactive
LWTALK	inactive
NRCQKSVVYLSLVYYHGIGM	inactive
TAKMSRVYCCCFSLFDVSLK	inactive
FLDDLTLVHGRSETKKNL	inactive
LSFDVKASWV	inactive
GTYLVSDAAGFYSWYLHYSF	inactive
SSWYSRAPWLRVEMRRKWYM	0.025 ± 0.61
FFSSDDMWRYWMFSYSDNSI	inactive
NPETASLNLIKMSMHVSSFV	inactive
PFHGCPTHDCFNAGILALTV	inactive

Substance	amyloid nucleation score
DNVNYPPVSYQTAG	inactive
NMMSGRSQSVINFVYVDFHP	-0.183 ± 0.66
SVAVRWKAYVMVLSEHSPRG	inactive
PGYSCIRDIQITR	inactive
FGMSQKSSRGWGLNV	inactive
CKLRLWSEFSLVTSRSIYIA	inactive
ASFFNILNPISIVVILKRFC	inactive
VAEEHSVLSCQDADFCASSL	inactive
DVSRVIA	inactive
ERRASLGYNHIL	inactive
DAYGLYYTSYYPGT	inactive
LILFPRKRHTGSM	inactive
HQPGSRLI	inactive
CEMLMGRVIFWSPQPQLWNY	inactive
DILTDQS	inactive
LLWCGFQDCEMKC	inactive
ICILADEYLMCGYGYFHFDY	inactive
HRVYLPGRWRLMISLSC	-0.201 ± 1.3
YANDANSCDWCICAFDRRSC	inactive
AMMVRCFRDPKHEK	inactive
YGSDGHHLA	inactive
RMLPRLQDAR	inactive
ISCMVFANHR	inactive
RLGFRCSVLSDMLYVGVLGS	inactive

Substance	amyloid nucleation score
GAQAKC	inactive
ESFLFFMFIFASCTT	0.536 ± 0.33
TVVVGLVGF	0.825 ± 0.2
PWGLGNSARCWCFFMGHCEA	-0.889 ± 2.5
VLIMYKSGRYVIGSLVLMCL	inactive
LFGSF	inactive
WRDRNF	1.3 ± 0.15
VFAFTKMESRFLLGLRVDEY	0.729 ± 0.15
LAEVMTVLLFDYVNHWGSAI	inactive
ASWFYNIKKLNCCHFVQFAD	1.64 ± 0.09
VVDYTARWHRSYSSNGQRRM	inactive
FLALDQISFVIRCLNI	inactive
SYSDRGCVGMNVLSVFEGWD	inactive
LSTMN	inactive
SNVVSSI	inactive
VNMMRDVVIDKVLFLSSHVA	1.48 ± 0.12
WIYGYAVSLRSLYGLNLSM	inactive
VPKPD	inactive
SLGQLYDLGSRW	-0.805 ± 1.7
NNCSQVHKTRD	inactive
ALSGSGLRLTPMKQ	inactive
KVIRNTFIACCSV	2.16 ± 0.07
WNVWVLPIFIAFGLEPPRLE	2.62 ± 0.059
GIEADYSYMSGEGKAVCSSM	inactive

Substance	amyloid nucleation score
ARWGDSLSRDLTSGYLFGVG	inactive
IRLWQEHWNWRGRSLFFRWC	inactive
CYLMYLSEILAYHVATWQAT	inactive
WLIFYVYIVGDPAWLLVFMS	inactive
LFNPMKTVYWHNLAIWHYDV	inactive
LVRYLENIRLRS	inactive
ARISEFTESWNRRCYTLRYC	inactive
EPKLDNV	inactive
VTCWGWSFAGGRHCQVEAGV	-0.456 ± 0.96
LKNFIKWRGILPFFGTDFWM	inactive
VETSCGRMHVLHLTGSGYSM	inactive
ELSTMIKSSCPPLIDRWLFP	inactive
NMDSVV	inactive
MRTRGQTFTWGHYGCLLIDE	inactive
ASYEDFWDNLA	-0.239 ± 1.4
LTSPREMAWCPHDTAICGTT	inactive
SKKSRSLNWFLLVNRTPDAG	inactive
RIVGIYKGLLAD	inactive
LLDLDCYASLVSTTLEHMSG	inactive
STQTLEKNDVWGFLHSYWCR	0.128 ± 0.41
FWTLDRLRMLYVAILQPWSD	inactive
TVRGYRLAHYIAAGYSCMSR	inactive
PLRKSGQPSYAMPTRHARCI	inactive
IYSNSLACDRSGFFKASSSQ	-0.998 ± 1.2

Substance	amyloid nucleation score
VVNKPIHISSTYTLYSVVLA	inactive
MGVVRFTYCDIKV	inactive
KGRMQVEWDFGISAYCGMML	-0.431 ± 1.1
SFNSNSDDDIIFDALNYTLN	0.069 ± 0.62
RILTDGIIVLFL	inactive
VGSPWSYKG	inactive
VPWGIVSFA	inactive
ELFKEVCEGEFRAS	inactive
TRPGLKWWVLRRMRHFGRRV	inactive
WRHDMSIFQAQLSTLVGI	inactive
RVLNAYSLEYKCISSMPWYL	1.49 ± 0.14
LVKNITPNAA	inactive
YDTHWTVCLLSTCLTL	inactive
VITADLRSMIWDVPKNVY	0.92 ± 0.16
SIVICS	inactive
TINRHYVTASRYWLPCRRVR	inactive
SDNFLRNSLSQEYVRQTLGQ	inactive
RVVCGNTGNVAIKKGLINMC	inactive
VRVTVLFEIHGDVCMLMSVA	0.827 ± 0.13
LRGCVNAYLRYHTRGLVVLR	inactive
VFHRSSLNSSRAGWH	inactive
YIRVNTILDLD	inactive
ISTDDKIIGST	inactive
NFFTL	inactive
